Values quoted from earlier work, collected in article PMC7294136.

What was measured:
[1] = biological target: RAGE V domain (Homo sapiens) (UniProt Q15109)
[2] = biological target: RAGE (Homo sapiens) (UniProt Q15109); assay: SPR

| Kd [1] [nM] | Kd [2] [nM] | Substance |
| --- | --- | --- |
| 500 |  | S100B (from UniProt P04271) |
|  | 138 | S100A4 (from UniProt P26447) |
